Like-named read-outs stand apart in the source and are kept apart here.
Assays:
XCL1 R23A,R43A (human) [1] = molecular target: XCL1 R23A,R43A (human) (UniProt P47992); assay: 19F NMR
XCL1 R23A,R43A (human) [2] = molecular target: XCL1 R23A,R43A (human) (UniProt P47992); assay: 19F NMR; remark: listed apart in the source

## XCL1 R23A,R43A (from UniProt P47992 22-93) (domain or fragment)
XCL1 R23A,R43A (human) [1]
  percent of the protein in the dimer fold: 26%
XCL1 R23A,R43A (human) [2]
  percent of the protein in the dimer fold: 20%

From paper doi:10.64898/2025.12.30.697132
